Data published in the NTF2 design screens of Basanta et al. (2020).

Experiment: protease stability score; higher = more stable; yeast display proteolysis, trypsin and chymotrypsin;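 note: log10 excess protease needed over predicted unfolded state with 0 meaning unfolded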
“DEDLLRKIKQLLRAFEDNNEDQLRKNADPNARFVYGDKHIHGMEEAMRHQVTRYKEIRIERQIDTMSVTNGRANVQFTVVENHNGRPDTFHVQVDIKAHNGRVHTIEYEIHK” gave a protease stability score of 0.387. Work on “DEDLLRRAEQFIKAELRNNPDRAKELADPNVKFNIGDKEIHGMDDFRRYLHKKVKNMKWRAKVTHMKVQGNHAKLHVKVTLDINGRPFDVTRDILIVFHNGKIRDVNVRVDPEDKKRQKE” yielded a protease stability score of 1.39. With “DEDLMERLKTILDAQSNGNPDELRRMFDPNAKIDIGDKEYHGMENFASNQHKRVKHIEQKYQFKSISAEGDKLDVRLRAQQVVNGTPRKYEYNLTARMSNGKVKSMEVQIPEEVLKRLEK” the protease stability score was -0.219. With “DEDLMRKFVERVKTGDPKDLVDQLDENAHQVVGETRVHGRSQFEKLAKKLEEQVDHIKVRSVKQENGRVDMDVVVNVNGQNNRYVLRVDVHNGKIKHMEVEFTDEEDEKAYRKALG” the protease stability score was 0.095. Work on “DEDLMTQIVKRYIDAWREGDRDELMKLADENVHIQVGDQTYHGQEQWRELVKKHKDNADHMDVKSWNIRGEKVHVHYWARFNGVEIEDTVEIQYENGRIIDIQFDPDQQRKEDK” yielded a protease stability score of 0.676. In the case of “DEDLNDMAVRMAEILNEGNEDEYNKQIDPHARFVIGDKEYSGHEHFKKEIQRQNKEMRVTVNLHRWDATNGEMHLVIHYSWNVNGRPTTIHVHFRITARGDKFKQIDVHMDPDELRRVDS”, the protease stability score is reported as 0.765. Work on “DEDLQEFAERLLQVNRTGDEDQFRRNVDPNAKMVVGDKEYHGRDELARFFRHLREHARFELNVKSVSVEGDTVEIHFEARVDINGKPLTYEASMSMRVEGDRVKRITFRMDPDQRRKAHS” yielded a protease stability score of 1.11. With “DEDLQKQAERFLHAVNTGNEEQIHRLVDKDARMQYGDRRVHGRERIATWYRQMKEEIRQDIEVRTVRVRNGRVEVDARVERHVNGRPIDNKFHMSIQIENGKVKSITAHLDPNVLQEIKR” the protease stability score was 1.17. For “DEDLRRQAETMVDNINTNNERELEKLFDPNVHVVVGDRRINGTEHLRDYWRRIRDHMRLEVNLRRISVHNGKISAHVDVVREHNGKPDEDTFRMSAVVRNGKFHKMRVEKDG”, the protease stability score was 1.37. With “DEDLSRNFHQFIEALKQNDTDRMKELIDPNARMRYGDKQLHGRENILNYWKKLNDQARVDLDLKSVRNDENHIRYNYKMRVHVNGRPVEDTATAEIRATNGRIVDIYIDFDPEKLRQIES” the protease stability score was 2.34. With “DEDLTKRFRQLIKAQETGDPDKIKNQVDKDVHAHVGDKTVSGREKLATQIHRDVQHSHFKVHVDNVRNHGNKVEVDARMVMNINGRPVTFTVNMDFTFHDGTIHRIKMSISEEDKKKTDS” the protease stability score was 0.793. In the case of “DEDLVERVQDLLEAERENDEDTVSKMVDPNVKFSYGNRELHGREQWTKHVAEKQKQMRIQIDIDSYSVQGNHATFTAKITVHINGKPMSDTVTFQIVFSNGKVEEVRMRIDPRFQREVES”, the protease stability score is reported as 0.016. For “DEDMSRKAKKFWKAETDGNPQKLKTLIDPNARAHVGDQDLHGRRKIVHWLKHFRDTMRQHWTRYSFDAHGNKVDNRFVVVLQTNGKPERRRNKLTLVFKNGRLVSMRDETKG”, the protease stability score was 0.128. Work on “DEDMYEQYESILHNERTGNEDEWVENIDPNARIRVGDKEVHGMEDNAREKRRHQEEQRVHFDIKRYSIHNGELDVTAKMRRDVNGQPAQDDVKVRIVVENGRIKEQDQDFDEDDDRRQKK” yielded a protease stability score of -0.037. In the case of “DEDNAERVHTALDILERGNPEEVKKMFRDDVRATIGDTVIHGMTNFAHYMQRLMDHARVNITIRSWSVKNGRVEIDAEIHANHNGQPYHDRFKIKAEVTNGRFKYLQYDIDPDFLRDMTK”, the protease stability score is reported as 1.25. For “DEDNEKELQREIVRVLKHNDWERFTQLIDEDVRLEYGDQRYHGREQVSKHFTDLAQEVDSVEVTSVKAHNGKINITAILNHNGTNHRYNIRFEFRNGRLKVVRYDHT”, the protease stability score was 1.85. With “DEDNHRKAKKLIDAENTGDPTQVRKLADPNVHVEYGDEHVHGRDEIANELSKKAKEIRFRVDRLSFSVHNGTFSATQRMKENDNGRPEEFRVERSMELHNGKFVSIVQKKKS” the protease stability score was -0.071. Work on “DEDNLRDAMEVYHQNDPDKAVKMADEDVKVVVGDRKWNGREDFEEAMRTFNQRVDHIEYKSMDVSNGQISIDVVINVDGQNARFILNIEIHNGKIKSLRYQWRNENVRQVLTEIFQ” yielded a protease stability score of 0.795. “DEDNMHRLKEFLDNLNQGDEERLVELADEDVKLVYGEKRYHGREELTKTLETQRDQMRVDYKVKSMSVSNGRVHADIEASNTKNGKPKRFKVRVHAEFHNGRLQVYNQQEDK” gave a protease stability score of 0.42. “DEDNQREANRAAKTGDFKRMAEKADPNVSVTVGDKEVKGREEVHKFVQRFDDQVDDLDIKSFRVEGDKVHVQATAVFNGKKIEFSFSARIHNGKLTKMTVKVRDPRQQKKLQKQWE” gave a protease stability score of 0.004. Work on “DEDNQTQTAERVVEIMRTGDEHKMRNLADENVKIQIGDKKYRGRDEASKQAKELRDRVDRLRVVRFDVHGNKVRIVMQFKYNGVTVNFKFTVEIHNGRVKSMEMRYTNPEDLKRARS” yielded a protease stability score of 0.182. In the case of “DEDNTDRARKFFEALRTNDPDQVSSLLDPNARVHIGDRVINGREEVRTHIKHLTDKIRFQIQKVTVHVSNGRISAHVTFEVEVNGRPDRFNMEVVARVENGKIKVMQFKISEDQMQKLRN”, the protease stability score is reported as 1.39. In the case of “DEDNVKRAEHFAEALITGNPEEIQKQVDPNAKIKVGEQEVHGMESYAKEVHEENKEMHIEIRHISATAQGDRARLEMRYVINSNGRPQHVVQEYTIKLHNGRAQEIEVKDDG”, the protease stability score is reported as 0.282. For “DEDQAKEQVDNARKVINQGNFSEAVKTADPNVKAAYGEKRLEGRQVLHTYQEVFQRRVDHVHVRRVDLKGEKATIKAELTINGRTTTMRMVVEVSNGRLKNFYVKYK”, the protease stability score was 0.145. For “DEDQAKTIEELWRTNDFDTLATQADKDVHNHVGDKKIHGRTQHTQAQERIRRAVDHFDVKRVNIQGNKVDIDVVMEVNGKNVHMTVVITVHNGKIKHMSMRVRDEEVKKLFEEMEQ”, the protease stability score was 0.527. “DEDQAQKLIDKMTEAMFKNDEETIRKVGKEDVEVKNADEEYKGVDTIVDLARKYKEQGIEFHLEQVHKEGDQVKFTAVVHVADRTVKVEVKYKADNGHVERTEVEWSQEVKKAFQQH” gave a protease stability score of 0.97. “DEDQARLAIRFMEAWLEGNEDELKNQADPNAHFQVGDKHVTGMDEAAKELKTQLTEIRWDYKSVRIDTEEGRANLDMTVRMEVNGKPVEHSQKIEVERHNGQLSVIDQQFDNDTWDEVKS” gave a protease stability score of -0.393. Sequence “DEDQATEVAELVKSNDWENLRRNIDPNARMHIGDRTLHGREEIAEVFRRIVEQADHQRLHHLEVEGDTIVIRMTVNINGKEVDFRMKIQFHNGKIKEVRVDFTDPKERKVFDKAAR” has a protease stability score of 1.28. “DEDQEDLIRRLIKALDTGDPEQARKNADKDARFNYGDQEIHGMQTFVDDLEKRKRQMHVRITRIDVRVHNGQAKQSVNEVTNHNGRPQSRVQDRRIQITNGRVKKMENDDDG” showed a protease stability score of -0.316. In the case of “DEDQELRSLAEDAVRAMQSNNPDDFVNLFPENARINIGDKNIHGREEIKKHAQEVNTKVDRFSVTIEHIHVHNGKAEFTVDFVMNINGRTERRRASFRIDRIGDKVRIHSADVK”, the protease stability score is reported as 0.571. “DEDQHRRWQELMKAIETGDPERIKELMDPNAEFVVGDKHVRGREKYAREVHRELRTMRVEFRILSLRVQGDRLLADVEVVTHDDGKPTSHRFKLEVKAENGTIRVFRNQSVP” gave a protease stability score of 0.155. In the case of “DEDQLKVALKAIRAQNNNNPDELLKLLDENVRLQYGDKTVHGREEVKEMIKHWLSHWRWKIDVRRYSVHNGVARIEALVTINVNGKPQTFTVVIHVRAENGRIKEMHYHFDEEDQEKIRS”, the protease stability score is reported as 1.37. For “DEDQLRNIAHKLNEVWQNGDPDEMKKLLDPNVKFRYGDKTVQGMNEYVTILREMVKRIDHAHVRDFTAHNGRIDIDIQFDVNGRTVSAKVSYVVDNGKVKRAKFDPKNMKKLQS”, the protease stability score was 0.036. For “DEDQMAETLFDEIRKIWETGSEEDAKKMMDPNAHVHVGDKEVTGREEIAKRLHDEAKKADHINLTLEDVEVKGDKAQLHVRFQLHVNGKRDERRIVFVFRNHNGRLIMVTASDS”, the protease stability score was 1.44. “DEDQMEDLKRKWEKNDWRRFARNADPNVRVEVGDRRYHGRTDALRAMKIIEDTADRIQIDRVKSTNGKVTVDLVLVVNGNKIRARFEAVVHNGQVKHFTMKFRDKDDKRRFNEAMS” gave a protease stability score of 0.582. For “DEDQNRKMEHALRKNDWTRLAEQADKDVKVHIGDKVLHGREEVLKYLKRFQENVDHIEIKRMEATGNKVTVEYDVNFDGTTLDVTFKMVVQNGTVEHMTFDFRSEEQEHEAKKAYG”, the protease stability score was 0.627. “DEDQNTVFEEVKKAIRTGDEEMLKTLMDPNVRLEYGDTEIHGREEAVRQISTRHNQLHVDEQIKDIKAHNGKVDVDFEVHRSHNGDPQHRRASARADVSNGSVKELVVKYDK” gave a protease stability score of 0.014. Work on “DEDQQKEVEKMLQDRRTNNPERIRKMFDPNARVQVGDKTINGREDAKRYAEEERDQIRVEYKSINISVHNGRVQVDVRARFNHNGKPETRQFNLDASIHNGRIKEFQQRDDK” yielded a protease stability score of -0.163. “DEDQQRKWEDWERHLRQNNEEKLVEMFDPNAKWVIGDKRWHGMEEAASKLATRVKNLHIEIRSMRVKVDGDTVEIDVLVTYTHNGQPSEKREILYIHAHNGEVKKVHFEDRE” showed a protease stability score of 0.412. “DEDQRRKLEDLLRAYRTGDEKRIVEMADPNVEMHVGDHEVHGMEKIARKQVRTNQEARVDYEDWRLDFQGDKVNFEFDLRRDHNGEPETHKVDMTIVFKNGRIKSQSVRNTK” gave a protease stability score of -0.135. In the case of “DEDQVEVMRELWRAYEDGADDQLKKLVDPNARFEVGDKHIEGREEYARDMQRQRKEIRVHYREISIENREGRLHIDYIYQRTHNGQPQTVRQVVEVDIKNGVVQRQRVQDVS”, the protease stability score is reported as 0.474. “DEDQVLKVIEKALKAIQQGHREEAKKLGKPNVEVQAADQRDKGPDALLKMVEQVQKVGDKFEYKETRKKGGTVTTRVEVTFGGKTVEYEVNVQAEGGKVQKWEVRIDDDFIEQVKKS” gave a protease stability score of 0.671. For “DEDQVQRVREMIKAWQHNDPEKLMQQVDPNVKARVGDKTLQGREQMSKDLDRRRKEARFVIRVQEVDKRENRVQVNVKMKVNHNGHPHSFSFILNVEVHGDHIHTIHIERDK”, the protease stability score was 0.356. For “DEDQVRQANDNVIKAMKNGDPRKFKELFDPNARANYGDKEIHGMHTAMQRLVELLQQVDHIRIKDIKVENGHVHVDLVLEVNGRSVRFTITFRQSNGKVEELRMDPEDQKTLRR”, the protease stability score was -0.186. “DEDQVRRIIQDLRRNNFEKMVELMDEDVKIDVGNYDYHGREAAHEILDRIRRQIDHIEYKSVTAQGDKIDVKAVAIINGKEWTFRVEVDADNGRIHSMKIRFRSEKEEQDYQKEVQ” gave a protease stability score of 1.11. With “DEDQVRRVADKMFKMAVNGNKDEMKKLGKPNVEYKYLDKEYEGPDALKRVADKVKKIGAKVETQRREVKGDKVTAVFRYNDGDHTVQTTAEVQYEGDVVDRARVEITDEVKKVAHKG” the protease stability score was -0.093. Sequence “DEDRAKSFMQAVVDNDPDKILKMMDENVRIEYGNKEIHGHEDLRKFWDKLKDQVDHYQVDRYSIHNGTVNVDAQMVVNGVRVRFTIVAELRNGKVTSVKYRVTNPRQERQLDELWG” has a protease stability score of 1.23. “DEDRARRLMEKMFKIILNGNDEEARKMGAPDVEYQYADKTFHGEEAMKYIVKVVKRVGVKVRQEKHEVHGDTATAHFQYENGDTTVETQAHVQYEGDKAKKVEVKNSDEVRKLVDQG” gave a protease stability score of 0.228. In the case of “DEDREAKKNLENMQKVLEKGDPDKMSELVDEDVRFVVGDKTFQGREDVRRRMETNVKRVDHIEVQIKHYEVKNGRARADAVFRVEVNGKETTRKFDVQVKVENGRFRVEQIRYK”, the protease stability score is reported as 0.265. For “DEDREKEVVDILRDGNPDDAREMADENVTVRVGNKVIHGREEYHRFIKRMQDQADHRHIDSVHHRPGRVRIQFRAVVDGQKFSAQMTVKVENGRVKSAQLDATDESVKKILEHIFG”, the protease stability score was 1.16.
